Results published in US5807729A, “Metalloprotease having increased activity” (Novo Nordisk A/S, priority 1995, dated 1998).

How the values were obtained:
[1] = system: pro-trypsin-like F. oxysporum protease; test: Processing of pro-trypsin-like F. oxysporum protease to active trypsin-like protease
Protocol: Activatable pro-trypsin-like F. oxysporum protease is determined in microtiter wells as released trypsin-like F. oxysporum protease (tryptic) activity from pro-trypsin-like F. oxysporum protease after a 40 minute pre-incubation at room temperature with purified Fusarium oxysporum metalloprotease (approximately 6 ug).
Processed pro-trypsin-like F. oxysporum protease(i.e. mature trypsin-like F. oxysporum protease) activity is determined directly from microtiter plates containing the pre-incubated metalloprotease/pro-trypsin-like F. oxysporum protease cocktail (total volume=100 microliters), and 100 microliters of substrate (87 mg/ml.L-BAPNA stock in DMSO diluted 50-fold in sample buffer). Again, active trypsin-like F. oxysporum protease is determined as an increase in absorbance at 405 nm immediately after L-BAPNA addition.
Purified pro-trypsin-like F. oxysporum protease is added to fresh A. oryzae fermentation broths containing the recombinant p45 metalloprotease (approximately 90 mg/L) and incubated for either 1, 2, or 3 hours at room temperature. Levels of pro-trypsin-like F. oxysporum protease in the incubation mixtures range from 100 ug/ml to 13 mg/ml.
Purified pro-trypsin-like F. oxysporum protease (100 ug/ml) is added to various amounts of either purified recombinant p45 metalloprotease or purified B.s. metalloprotease.

succinylated casein = test: Casein hydrolysis, succinylated casein assay (QuantiCleave, BCA, 600 nm); type: biochemical
Protocol: 400 ul of casein solution (Pierce) is added to small test tubes along with 100 ul of protease. The tubes are vortexed and incubated at room temperature for 40 minutes. The incubation (and assay) buffer is 0.1 M borate, 2 mM CaCl2, and 10 mM dimethylglutarate, pH 6.5. At the end of the incubation, 60 microliters of trichloroacetic acid (100% w/v) is added, and the tubes are vortexed and centrifuged for 1 minute at 5000×g. 20 microliters of the resulting supernatant is placed into a microtiter plate well with 200 microliters of the BCA working reagent (Pierce). The plates are then vortexed and incubated another 30 minutes, then read at 600 nm using a Biomek 1000 microtiter plate reader.
400 microliters of casein solution (Pierce) are added to small test tubes along with 100 microliters of protease in buffer "A" (0.1M borate, 2 mM CaCl2 and 10 mM dimethylglutaric acid). At the end of the incubation, 60 microliters of trichloroacetic acid (100% w/v) is added, and the tubes are vortexed and centrifuged for 1 minute at 5000×g. 20 microliters of the resulting supernatant is placed into a microtiter plate well with 200 microliters of the BCA working reagent (Pierce). The plates are then vortexed and incubated another 30 minutes, then read at 600 nm using a Biomek 1000 microtiter plate reader.

B1: p45 Metalloprotease: metalloprotease purified from Fusarium oxysporum DSM 2672 broth, 45 kDa band; also produced recombinantly in A. oryzae (protein)
chain: MRFSDSLLLIGLSSLAGAHPSRRAPNPSPLSKRGLDLEAFKLPPMAEYVPQDEVPDDVSAKVVTKRADYTETAKDLVKSTFPKATFRMVTDHYVGSNGIAHVNFKQTVNGIDIDNADFNVNIGADGEVFSYGNSFYEGKIPGPLTKRDEKDPVDALKDTVDVLSLPVEADKAKAEKKSKNHYTFTGTKGTVSKPEAKLTYLVDENKELKLTWRVETDIVDNWLLTYVNAAKTDEVVGVVDYVNEATYKVYPWGVNDPSKGSRSTVENPWNLAASEFTWLSDGSNNYTTTRGNNGIAQVNPSGGSTYLNNYRPDSPSLKFEYDYSTSTTTPTTYRDASIAQLFYTANKYHDLLYLLGFTEQAGNFQTNNNGQGGVGNDMVILNAQDGSGTNNANFATPADGQPGRMRMYLWTYSTPQRDCSFDAGVVIHEYTHGLSNRLTGGPANSGCLPGGESGGMGEGWGDFMATAIHIQSKDTRASNKVMGDWVYNNAAGIRAYPYSTSLTTNPYTYKSVNSLSGVHAIGTYWATVLYEVMWNLIDKHGKNDADEPKFNNGVPTDGKYLAMKLVVDGMSLQPCNPNMVQARDAIIDADTALTKGANKCEIWKGFAKRGLGTGAKYSASSRTESFALPSGC
Specific Activity, substrate pro-trypsin [1]: 1.2 g trypsin/min*mg | share of activatable pro-trypsin-like protease processed ([1]; A. oryzae broth with approx. 90 mg/L recombinant p45, pro-trypsin 100 ug/ml to 13 mg/ml, room temperature, within 1 hour): 80-100% | moles of pro-trypsin-like protease processed per mole of metalloprotease ([1]; pro-trypsin-like protease 100 ug/ml, within 1 hr.): about 50 moles | Specific Activity, substrate Succinylated Casein (maximal level) (succinylated casein): 0.30 O.D. | maximum absorbance, casein hydrolysis (succinylated casein; pH 6.5, room temperature, 40 minutes, FIG. 8): around 0.3 O.D. units | maximum absorbance / maximal hydrolyzed casein relative to the other proteases (succinylated casein; relative to thermolysin, dispase, B.s. neutral metalloprotease, listed as p45): about 60%
